{"source": "patent US20030208037A1", "about": "(CYTOVIA, published 2003)", "target": "T1, recombinant caspase-3 (UniProt P42574 29-277, limits assumed)", "T1 sequence (looked up)": "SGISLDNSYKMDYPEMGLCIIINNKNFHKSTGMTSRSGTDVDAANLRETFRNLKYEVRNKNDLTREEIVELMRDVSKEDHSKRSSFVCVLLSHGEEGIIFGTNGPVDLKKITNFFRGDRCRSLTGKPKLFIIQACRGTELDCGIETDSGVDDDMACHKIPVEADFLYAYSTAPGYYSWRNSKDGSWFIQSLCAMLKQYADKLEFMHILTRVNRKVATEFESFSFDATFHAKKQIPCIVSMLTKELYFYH", "assay": "cell-based or functional assay", "note": "*: point of attachment. TFB = 2,3,4,5-tetrafluorobenzoyl; PFB = pentafluorobenzoyl; Cbz = O=C(OCc1ccccc1)*; R110 = rhodamine 110", "data": [{"binder": "Cbz-DEVD-{R110-PFB}", "note": "[N-(Z-Asp-Glu-Val-Asp)-N'-pentafluorobenzoyl-Rhodamine 110]", "values": [{"measurement": "increase in fluorescence on cleavage of the substrate (cell-free enzyme assay)", "result": "> 10", "unit": "fold"}]}, {"binder": "Ac-DEVD-{R110-TFB}", "note": "[N-(Ac-DEVD)-N'-(2,3,4,5-tetrafluorobenzoyl)-R110]", "values": [{"measurement": "increase in fluorescence on cleavage of the substrate (cell-free enzyme assay, 10 uM substrate, 3 hours at 37 C)", "result": "~50", "unit": "fold"}]}]}
